# In IntAct's records for PubMed 17632125:
# B1: UBP3-associated protein BRE5 (Saccharomyces cerevisiae), P53741 (parent)
# chain: MGVTVQDICFAFLQNYYERMRTDPSKLAYFYASTAELTHTNYQSKSTNEKDDVLPTVKVTGRENINKFFSRNDAKVRSLKLKLDTIDFQYTGHLHKSILIMATGEMFWTGTPVYKFCQTFILLPSSNGSTFDITNDIIRFISNSFKPYVLTDASLSQSNEENSVSAVEEDKIRHESGVEKEKEKEKSPEISKPKAKKETVKDTTAPTESSTQEKPIVDHSQPRAIPVTKESKIHTETVPSSTKGNHKQDEVSTEELGNVTKLNEKSHKAEKKAAPIKTKEGSVEAINAVNNSSLPNGKEVSDEKPVPGGVKEAETEIKPIEPQVSDAKESGNNASTPSSSPEPVANPPKMTWASKLMNENSDRISKNNTTVEYIRPETLPKKPTERKFEMGNRRDNASANSKNKKKPVFSTVNKDGFYPIYIRGTNGLREEKLRSALEKEFGKVMRITAADNFAVVDFETQKSQIDALEKKKKSIDGIEVCLERKTVKKPTSNNPPGIFTNGTRSHRKQPLKRKD
# partner: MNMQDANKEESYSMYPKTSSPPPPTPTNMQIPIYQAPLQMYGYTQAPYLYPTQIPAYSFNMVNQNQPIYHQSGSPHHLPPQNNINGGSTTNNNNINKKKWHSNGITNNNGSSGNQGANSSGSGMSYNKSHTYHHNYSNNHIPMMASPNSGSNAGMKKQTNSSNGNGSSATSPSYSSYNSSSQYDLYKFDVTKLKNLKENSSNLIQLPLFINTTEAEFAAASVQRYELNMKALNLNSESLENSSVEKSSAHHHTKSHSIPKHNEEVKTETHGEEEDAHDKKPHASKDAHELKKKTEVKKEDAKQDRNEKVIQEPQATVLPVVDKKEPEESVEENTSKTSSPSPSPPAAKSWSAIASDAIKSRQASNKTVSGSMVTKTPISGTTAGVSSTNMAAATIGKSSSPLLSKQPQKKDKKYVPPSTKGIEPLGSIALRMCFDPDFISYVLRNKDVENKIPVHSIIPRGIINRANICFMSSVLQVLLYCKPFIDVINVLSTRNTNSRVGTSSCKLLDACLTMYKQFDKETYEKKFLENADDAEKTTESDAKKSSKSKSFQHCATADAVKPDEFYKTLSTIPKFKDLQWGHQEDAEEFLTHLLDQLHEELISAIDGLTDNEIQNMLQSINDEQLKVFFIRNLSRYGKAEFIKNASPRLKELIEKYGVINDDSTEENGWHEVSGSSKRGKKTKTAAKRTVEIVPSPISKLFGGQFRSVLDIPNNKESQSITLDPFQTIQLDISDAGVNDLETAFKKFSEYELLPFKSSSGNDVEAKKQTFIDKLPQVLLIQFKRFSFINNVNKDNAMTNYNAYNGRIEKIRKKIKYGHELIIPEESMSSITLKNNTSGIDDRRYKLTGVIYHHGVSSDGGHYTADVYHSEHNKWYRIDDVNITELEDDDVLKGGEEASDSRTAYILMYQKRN
# B2: Ubiquitin carboxyl-terminal hydrolase 3 (Saccharomyces cerevisiae), Q01477 (parent)
# chain: B1 partner
# partner: B1 chain
# Variants of: B1
# Conditions: with ubp3_yeast UBP3, Q01477
row,effect of a mutation on the interaction,Variant
1,with no effect,MGVTVQDICFAFLQNYYERMRTDPSKLAYFYASTAELTHTNYQSKSTNEKDDVLPTVKVTGRENINKFFSRNDAKVRSLALKLDTIDFQYTGHLHKSILIMATGEMFWTGTPVYKFCQTFILLPSSNGSTFDITNDIIRFISNSFKPYVLTDASLSQSNEENSVSAVEEDKIRHESGVEKEKEKEKSPEISKPKAKKETVKDTTAPTESSTQEKPIVDHSQPRAIPVTKESKIHTETVPSSTKGNHKQDEVSTEELGNVTKLNEKSHKAEKKAAPIKTKEGSVEAINAVNNSSLPNGKEVSDEKPVPGGVKEAETEIKPIEPQVSDAKESGNNASTPSSSPEPVANPPKMTWASKLMNENSDRISKNNTTVEYIRPETLPKKPTERKFEMGNRRDNASANSKNKKKPVFSTVNKDGFYPIYIRGTNGLREEKLRSALEKEFGKVMRITAADNFAVVDFETQKSQIDALEKKKKSIDGIEVCLERKTVKKPTSNNPPGIFTNGTRSHRKQPLKRKD [K80A]
2,with no effect,MGVTVQDICFAFLQNYYERMRTDPSKLAYFYASTAELTHTNYQSKSTNEKDDVLPTVKVTGRENINKFFSRNDAKVRSLKLALDTIDFQYTGHLHKSILIMATGEMFWTGTPVYKFCQTFILLPSSNGSTFDITNDIIRFISNSFKPYVLTDASLSQSNEENSVSAVEEDKIRHESGVEKEKEKEKSPEISKPKAKKETVKDTTAPTESSTQEKPIVDHSQPRAIPVTKESKIHTETVPSSTKGNHKQDEVSTEELGNVTKLNEKSHKAEKKAAPIKTKEGSVEAINAVNNSSLPNGKEVSDEKPVPGGVKEAETEIKPIEPQVSDAKESGNNASTPSSSPEPVANPPKMTWASKLMNENSDRISKNNTTVEYIRPETLPKKPTERKFEMGNRRDNASANSKNKKKPVFSTVNKDGFYPIYIRGTNGLREEKLRSALEKEFGKVMRITAADNFAVVDFETQKSQIDALEKKKKSIDGIEVCLERKTVKKPTSNNPPGIFTNGTRSHRKQPLKRKD [K82A]
3,with no effect,MGVTVQDICFAFLQNYYERMRTDPSKLAYFYASTAELTHTNYQSKSTNEKDDVLPTVKVTGRENINKFFSRNDAKVRSLKLKLDTIDFQYTGHLHKSILIMATGAMFWTGTPVYKFCQTFILLPSSNGSTFDITNDIIRFISNSFKPYVLTDASLSQSNEENSVSAVEEDKIRHESGVEKEKEKEKSPEISKPKAKKETVKDTTAPTESSTQEKPIVDHSQPRAIPVTKESKIHTETVPSSTKGNHKQDEVSTEELGNVTKLNEKSHKAEKKAAPIKTKEGSVEAINAVNNSSLPNGKEVSDEKPVPGGVKEAETEIKPIEPQVSDAKESGNNASTPSSSPEPVANPPKMTWASKLMNENSDRISKNNTTVEYIRPETLPKKPTERKFEMGNRRDNASANSKNKKKPVFSTVNKDGFYPIYIRGTNGLREEKLRSALEKEFGKVMRITAADNFAVVDFETQKSQIDALEKKKKSIDGIEVCLERKTVKKPTSNNPPGIFTNGTRSHRKQPLKRKD [E105A]
4,with no effect,MGVTVQDICFAFLQNYAERMRTDPSKLAYFYASTAELTHTNYQSKSTNEKDDVLPTVKVTGRENINKFFSRNDAKVRSLKLKLDTIDFQYTGHLHKSILIMATGEMFWTGTPVYKFCQTFILLPSSNGSTFDITNDIIRFISNSFKPYVLTDASLSQSNEENSVSAVEEDKIRHESGVEKEKEKEKSPEISKPKAKKETVKDTTAPTESSTQEKPIVDHSQPRAIPVTKESKIHTETVPSSTKGNHKQDEVSTEELGNVTKLNEKSHKAEKKAAPIKTKEGSVEAINAVNNSSLPNGKEVSDEKPVPGGVKEAETEIKPIEPQVSDAKESGNNASTPSSSPEPVANPPKMTWASKLMNENSDRISKNNTTVEYIRPETLPKKPTERKFEMGNRRDNASANSKNKKKPVFSTVNKDGFYPIYIRGTNGLREEKLRSALEKEFGKVMRITAADNFAVVDFETQKSQIDALEKKKKSIDGIEVCLERKTVKKPTSNNPPGIFTNGTRSHRKQPLKRKD [Y17A]

# Variants of: B1
# Conditions: with ubp3_yeast UBP3, Q01477
# Remark: another data set of the same source
row,effect of a mutation on the interaction,Variant
1,decreasing interaction strength,MGVTVQDICFAFLQNYAERMRTDPSKLAYFYASTAELTHTNYQSKSTNEKDDVLPTVKVTGRENINKFFSRNDAKVRSLKLALDTIDFQYTGHLHKSILIMATGEMFWTGTPVYKFCQTFILLPSSNGSTFDITNDIIRFISNSFKPYVLTDASLSQSNEENSVSAVEEDKIRHESGVEKEKEKEKSPEISKPKAKKETVKDTTAPTESSTQEKPIVDHSQPRAIPVTKESKIHTETVPSSTKGNHKQDEVSTEELGNVTKLNEKSHKAEKKAAPIKTKEGSVEAINAVNNSSLPNGKEVSDEKPVPGGVKEAETEIKPIEPQVSDAKESGNNASTPSSSPEPVANPPKMTWASKLMNENSDRISKNNTTVEYIRPETLPKKPTERKFEMGNRRDNASANSKNKKKPVFSTVNKDGFYPIYIRGTNGLREEKLRSALEKEFGKVMRITAADNFAVVDFETQKSQIDALEKKKKSIDGIEVCLERKTVKKPTSNNPPGIFTNGTRSHRKQPLKRKD [Y17A;K82A]

# Variants of: B2
# Conditions: with bre5_yeast BRE5, P53741
row,effect of a mutation on the interaction,Variant
1,with no effect,R224A
2,with no effect,F217A
3,with no effect,E216A
4,decreasing interaction strength,N211A
5,with no effect,T212A
6,with no effect,E214A
7,decreasing interaction strength,N211A;F217A

# The next lines start with the variant.
row,Variant,effect of a mutation on the interaction
1,F209A,with no effect
2,I210A;F217A,decreasing interaction strength
3,I210A,decreasing interaction strength
4,L208A;F209A;I210A;N211A;F217A,disrupting interaction strength
5,L208A;F209A,decreasing interaction strength
6,L208A;F209A;I210A;N211A,decreasing interaction strength
7,L208A,with no effect
